Residue numbers refer to the chain shown, from its start.
B1: anti-Sortilin antibody S-22 (antibody, V domains shown)
VH: QVQLVQSGAEVKKPGSSVKVSCKASGGTFSSYAISWVRQAPGQGLEWMGGIIPIFGTASYAQKFQGRVTITADESTSTAYMELSSLRSEDTAVYYCARQGRKTGYYYYYGMDVWGQGTTVTVSS
VL: DIQMTQSPSTLSASVGDRVTITCRASQSISSWLAWYQQKPGKAPKLLIYKASSLESGVPSRFSGSGSGTEFTLTISSLQPDDFATYYCQQADGHITFGGGTKVEIK
B2: anti-Sortilin antibody S-21 (antibody, V domains shown)
VH: B1 VH with G50S, S59N, Q99E, G100R, K102Y, T103D
VL: DIQMTQSPSSLSASVGDRVTITCRASQSISSYLNWYQQKPGKAPKLLIYAASSLQSGVPSRFSGSGSGTDFTLTISSLQPEDFATYYCQQKASLPFTFGGGTKVEIK
notes: IgG
B3: anti-Sortilin antibody S-21 (antibody, V domains shown)
VH: B1 VH with G50S, S59N, Q99E, G100R, K102Y, T103D
VL: B2 VL
B4: anti-Sortilin antibody S-22 (antibody, V domains shown)
VH: B1 VH
VL: B1 VL
notes: IgG
B5: anti-Sortilin antibody S-15 (antibody, V domains shown)
VH: QVQLVQSGAEVKKPGASVKVSCKASGYTFTSYYMSWVRQAPGQGLEWMGIINPSGGSTSYAQKFQGRVTMTRDTSTSTVYMELSSLRSEDTAVYYCARDPSGIAAAGPASRYYYGMDVWGQGTTVTVSS
VL: EIVMTQSPATLSVSPGERATLSCRASQSVSSNLAWYQQKPGQAPRLLIYGASTRATGIPARFSGSGSGTEFTLTISSLQSEDFAVYYCQQARLGPWTFGGGTKVEIK
B6: anti-Sortilin antibody S-14 (antibody, V domains shown)
VH: B5 VH
VL: B2 VL with A50G, K91H, A92Y, S93V, L94G
B7: anti-Sortilin antibody S-61 (antibody, V domains shown)
VH: QVQLQESGPGLVKPSETLSLTCAVSGYSISSGYYWGWIRQPPGKGLEWIGSIYHSGSTYYNPSLKSRVTISVDTSKNQFSLKLSSVTAADTAVYYCARGSPRFYYGSGSYLDLFDIWGQGTMVTVSS
VL: B5 VL with Q90E, A91Y, R92L, L93N, G94Y, W96I
B8: anti-Sortilin antibody S-6 (antibody, V domains shown)
VH: not shown
VL: B5 VL with A91V, R92A, L93N, G94Y, W96R
B9: anti-Sortilin antibody S-2 (antibody, V domains shown)
VH: not shown
VL: B2 VL with K91S, A92D, S93V, L94S, F96I
B10: anti-Sortilin antibody S-19 (antibody, V domains shown)
VH: QVQLVQSGAEVKKPGSSVKVSCKASGGTFSSYAISWVRQAPGQGLEWMGGIIPIFGTASYAQKFQGRVTITADESTSTAYMELSSLRSEDTAVYYCARESRIPGSGYYYYYGMDVWGQGTTVTVSS
VL: B2 VL with A50S, K91T, A92D, S93G, L94K, F96P
B11: anti-Sortilin antibody S-19 (antibody, V domains shown)
VH: B10 VH
VL: B2 VL with A50S, K91T, A92D, S93G, L94K, F96P
notes: IgG
B12: anti-Sortilin antibody S-29 (antibody, V domains shown)
VH: EVQLVESGGGLVKPGGSLRLSCAASGFTFSSYSMNWVRQAPGKGLEWVSSISSSSNYIYYADSVKGRFTISRDNAKNSLYLQMNSLRAEDTAVYYCARGGLDRWGSFDIWGQGTMVTVSS
VL: not shown
B13: anti-Sortilin antibody S-28 (antibody, V domains shown)
VH: B12 VH
VL: not shown
notes: IgG
B14: anti-Sortilin antibody S-28 (antibody, V domains shown)
VH: B12 VH
VL: not shown
B15: anti-Sortilin antibody S-29 (antibody, V domains shown)
VH: B12 VH
VL: not shown
notes: IgG
B16: anti-Sortilin antibody S-26 (antibody, V domains shown)
VH: EVQLVESGGGLVKPGGSLRLSCAASGFTFSSYSMNWVRQAPGKGLEWVSSISSSSSYIYYADSVKGRFTISRDNAKNSLYLQMNSLRAEDTAVYYCARDRLGRGYKWNWFDPWGQGTLVTVSS
VL: DIQMTQSPSSVSASVGDRVTITCRASQGIDSWLAWYQQKPGKAPKLLIYAASSLQSGVPSRFSGSGSGTDFTLTISSLQPEDFATYYCQQGNSLPPITFGGGTKVEIK
B17: anti-Sortilin antibody S-26 (antibody, V domains shown)
VH: B16 VH
VL: B16 VL
notes: IgG
B18: anti-Sortilin antibody S-18 (antibody, V domains shown)
VH: QVQLVQSGAEVKKPGSSVKVSCKASGGTFSSYAISWVRQAPGQGLEWMGSIIPIFGTANYAQKFQGRVTITADESTSTAYMELSSLRSEDTAVYYCARDKHGRRGYYYYMDVWGKGTTVTVSS
VL: EIVLTQSPATLSLSPGERATLSCRASQSVSSYLAWYQQKPGQAPRLLIYDASNRATGIPARFSGSGSGTDFTLTISSLEPEDFAVYYCQQGANAPPRTFGGGTKVEIK
B19: anti-Sortilin antibody S-18 (antibody, V domains shown)
VH: B18 VH
VL: B18 VL
notes: IgG
B20: anti-Sortilin antibody S-51 (antibody, V domains shown)
VH: QVQLVESGGGVVQPGRSLRLSCAASGFTFSSYGMHWVRQAPGKGLEWVAVISYDGSNKYYADSVKGRFTISRDNSKNTLYLQMNSLRAEDTAVYYCAKGLEYYDSSRLYYPYYYYMDVWGKGTTVTVSS
VL: EIVLTQSPATLSLSPGERATLSCRASQSVSSYLAWYQQKPGQAPRLLIYDASKRATGIPARFSGSGSGTDFTLTISSLEPEDFAVYYCQQRSNYPITFGGGTKVEIK
B21: anti-Sortilin antibody S-55 (antibody, V domains shown)
VH: QVQLQESGPGLVKPSETLSLTCAVSGYSISSGYYWGWIRQPPGKGLEWIGSIYHSGSTYYNPSLKSRVTISVDTSKNQFSLKLSSVTAADTAVYYCARGRPELGWDKYFQHWGQGTLVTVSS
VL: DIQMTQSPSSVSASVGDRVTITCRASQGISRWLAWYQQKPGKAPKLLIYAASSLQSGVPSRFSGSGSGTDFTLTISSLQPEDFATYYCQQANALPTFGGGTKVEIK
B22: anti-Sortilin antibody S-81 (antibody, V domains shown)
VH: QLQLQESGPGLVKPSETLSLTCTVSGGSISSSSYYWGWIRQPPGKGLEWIGSIYYSGSTYYNPSLKSRVTISVDTSKNQFSLKLSSVTAADTAVYYCARERWDLGHGMDVWGQGTTVTVSS
VL: not shown

Experiments:
human Sortilin = human Sortilin (human, UniProt Q99523 78-830); assay: cell-based or functional assay
mouse Sortilin = mouse Sortilin (mouse, UniProt Q6PHU5 74-825); assay: cell-based or functional assay
[1] = target: T1, recombinant mouse Sortilin (mouse, UniProt Q6PHU5 74-825); assay: flow cytometry, 293 cells expressing recombinant mouse Sortilin, 10 ug/ml antibody
T1 construct: also called mSort
Description: (§1) Cells were harvested, plated at 10⁵/ml in a 96 well plate, washed, and incubated in 100 μl PBS containing 10 μg/ml Mab and 2% FBS for 1 hour in ice. Cells were then washed twice and incubated in 100 μl PBS+2% FBS containing 5 μg/ml PE-conjugated anti-human secondary antibody for 30 minutes in ice. Cells were washed twice in cold PBS and data was acquired on a BD FACS Canto. Data analysis and calculation of MFI values was performed with FlowJo (TreeStar) software version 10.0.7.

[2] = target: T2, recombinant human Sortilin (human, UniProt Q99523 78-830); assay: flow cytometry, 293 cells expressing recombinant human Sortilin, 10 ug/ml antibody
T2 construct: also called hSort; SORT1
Description: as §1

Binder	Percent reduction of Sortilin levels in U251 cells (human Sortilin) [%]	Percent reduction of Sortilin levels in N2A cells (mouse Sortilin) [%]	MFI [1] [MFI]	MFI [2] [MFI]
B1	92.7	87.7		
B2			22900	9380
B3	78.7	71.9		
B4			23200	8940
B5	87.8	76.1		
B6	75.4	58.5		
B7	70.3	62.7		
B8	42.5	45.1		
B9	96.2	66		
B10	93.4	86.5		
B11			28200	11700
B12	90.8	53.8		
B13			21600	8560
B14	85	51.1		
B15			21800	9600
B16	17.1	47.3		
B17			20900	9020
B18	85.7	58		
B19			21700	9350
B20	75.9	80.7		
B21	73	67.7		
B22	18.2	51.3		

Reference: patent publication US20220251219A1 (published 2022)
